Measurements published in PMC5608694, “The crystal structure of the regulatory domain of the human sodium-driven chloride/bicarbonate exchanger” (Scientific Reports, 2017).

Target: the molecule itself
Assay: SEC; 1 mg of ntcNDCBE on Superdex 200 10/300 GL; eluted at 14.2 mL, compared with molecular weight standards

B1: truncated (ΔVR1) N-terminal cytoplasmic domain of human sodium-driven chloride/bicarbonate exchanger NDCBE-D (domain or fragment, UniProt Q2Y0W8-4 40-344, looked up)
chain: DTPSQRVQFILGTEEDEEHVPHELFTELDEICMKEGEDAEWKETARWLKFEEDVEDGGERWSKPYVATLSLHSLFELRSCLINGTVLLDMHANSIEEISDLILDQQELSSDLNDSMRVKVREALLKKHHHQNEKKRNNLIPIVRSFAEVGKKQSDPHLMDKHGQTVSPQSVPTTNLEVKNGVNCEHSPVDLSKVDLHFMKKIPTGAEASNVLVGEVDILDRPIVAFVRLSPAVLLSGLTEVPIPTRFLFILLGPVGKGQQYHEIGRSMATIMTDEIFHDVAYKAKERDDLLAGIDEFLDQVTVLP
notes: human NDCBE (SLC4A8) isoform D, N-terminal cytoplasmic core domain, amino acids 40-344 (made by mutagenesis from the 40-425 construct); numbers count on: isoform D (Q2Y0W8-4); Forms a homodimer in the crystal and in solution; Codon-optimised gene in pET-M11; His tag removed with TEV protease; also called ntcNDCBE; regulatory N-terminal domain of human NDCBE; source: E. coli BL21 Gold, purified …
  stoichiometry N: 2
